In article PMC2637432:

Molecular target: human cytomegalovirus (HCMV)-encoded chemokine receptor US28, HA-tagged (human cytomegalovirus (HCMV)) (UniProt P69332)
Chain of UniProt P69332 (P69332 whole entry): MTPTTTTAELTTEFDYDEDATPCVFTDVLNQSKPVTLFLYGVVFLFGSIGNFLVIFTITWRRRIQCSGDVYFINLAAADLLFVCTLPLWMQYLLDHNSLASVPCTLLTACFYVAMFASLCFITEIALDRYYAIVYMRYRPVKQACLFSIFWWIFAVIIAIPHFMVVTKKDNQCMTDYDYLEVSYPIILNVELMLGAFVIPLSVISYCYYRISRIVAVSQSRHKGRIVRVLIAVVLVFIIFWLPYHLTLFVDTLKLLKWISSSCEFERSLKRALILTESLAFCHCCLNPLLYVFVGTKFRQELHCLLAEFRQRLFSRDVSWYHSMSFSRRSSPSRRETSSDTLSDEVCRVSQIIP

recombinant human Fractalkine (from UniProt P78423 25-341) (ligand)
lowest Fractalkine concentration that blocked migration of US28-expressing SMC induced by 40 ng/ml RANTES (competition migration assay): 10 ng/mL
